Test results reported in article PMC3485210.

Legend:
[1] = test system: G44P (Bacillus subtilis bacteriophage SPP1); assay: EMSA; conditions: EMSA: 50 mM Tris-HCl pH 7.5, 50 mM NaCl, 50 ng/ul BSA, 5% glycerol, 1 mM EDTA, 0.2 nM DNA, 37 C, 15 min (20 min in Fig 4 legend), 6% PAGE
[2] = biological target: gene 44 product (G44P) of Bacillus subtilis bacteriophage SPP1 (Bacillus subtilis bacteriophage SPP1); assay: SEC; FPLC gel filtration on Superdex 75 in buffer A (50 mM phosphate pH 7.5, 5% glycerol, 1 mM EDTA) with 1 M NaCl, 0.5 ml/min; 30 µg protein in 200 µl; mass from a standard curve of Kav versus log10 of molecular mass

Row | Substance | K half [1] [nM] | further results
1 | CGCAAGCGACAGGAACCTCGAGAAGCTTCCGGTAGCAGCCTGAGCGGTGGTTGAATTCCTCGAGGTTCCTGTCGCTTGCG / CGCAAGCGACAGGAACCTCGAGGAATTCAACCACCGCTCAACTCAACTGCAGTCTAGACTCGAGGTTCCTGTCGCTTGCG / CGCAAGCGACAGGAACCTCGAGTCTAGACTGCAGTTGAGTCCTTGCTAGGACGGATCCCTCGAGGTTCCTGTCGCTTGCG / CGCAAGCGACAGGAACCTCGAGGGATCCGTCCTAGCAAGGGGCTGCTACCGGAAGCTTCTCGAGGTTCCTGTCGCTTGCG [HJ-J3] | 10 | –
2 | CGCAAGCGACAGGAACCTCGAGGAATTCAACCACCGCTCAACTCAACTGCAGTCTAGACTCGAGGTTCCTGTCGCTTGCG (double strand) [80-bp dsDNA] | – | K half ([1]; complexes unstable in gel): 48 nM
3 | DL-D (D-loop) | 5 | –
4 | gene 44 product (G44P) of Bacillus subtilis bacteriophage SPP1 (enzyme) | – | stoichiometry N [2]: 2
